# T1: Peptide 4 YKNGV
# T1 chain: YKNGV
# T2: Peptide 1 YKN-thioglc-V (thiodepsipeptide 1)
# T2 chain: YKNXV
# T3: Peptide 3 YKNHV
# T3 chain: YKNHV
# T4: Peptide 2 YKN-glc-V (depsipeptide 2)
# T4 chain: YKNXV
# Legend:
# [1] = molecular target: T1, Peptide 4 YKNGV
# [2] = molecular target: T2, Peptide 1 YKN-thioglc-V …
# [3] = molecular target: T3, Peptide 3 YKNHV
# [4] = molecular target: T4, Peptide 2 YKN-glc-V (depsipeptide 2)
protein,measurement,setting,value
butelase 1 (protein) VEGTRWAVLVAGSKGYVNYRHQADVCHAYQILKKGGLKDENIIVFMYDDIAYNESNPHPGVIINHPYGSDVYKGVPKDYVGEDINPPNFYAVLLANKSALTGTGSGKVLDSGPNDHVFIYYTDHGGAGVLGMPSKPYIAASDLNDVLKKKHASGTYKSIVFYVESCESGSMFDGLLPEDHNIYVMGASDTGESSWVTYCPLQHPSPPPEYDVCVGDLFSVAWLEDCDVHNLQTETFQQQYEVVKNKTIVALIEDGTHVVQYGDVGLSKQTLFVYMGTDPANDNNTFTDKNSLGTPRKAVSQRDADLIHYWEKYRRAPEGSSRKAEAKKQLREVMAHRMHIDN,Km,[1],880 µM
same,kcat,[1],7.9 s⁻¹
same,kcat/Km,[1],8900 M⁻¹ s⁻¹
same,Km,[2],2760 µM
same,kcat,[2],56.5 s⁻¹
same,kcat/Km,[2],20500 M⁻¹ s⁻¹
same,Km,[3],300 µM
same,kcat,[3],4.1 s⁻¹
same,kcat/Km,[3],13500 M⁻¹ s⁻¹
same,Km,[4],740 µM
same,kcat,[4],12.4 s⁻¹
same,kcat/Km,[4],16800 M⁻¹ s⁻¹
